Data reported in patent US9663561B2, “Methods of treatment of cancer using SRC-modulating peptides” (The University of Toledo, priority 2006, dated 2017).

Legend:
purified Na+/K+-ATPase = target: T1, purified Na+/K+-ATPase (Sus scrofa, UniProt P05024); experiment: In vitro GST pulldown binding assay with purified Na+/K+-ATPase; design: species or system pig; conditions: 2 μg purified Na+/K+-ATPase per assay
T1 construct: Na+/K+-ATPase was purified from pig kidney outer medulla using the Jorgensen method; from tissue; host or cells: pig kidney outer medulla
Description: The purified Na+/K+-ATPase was solubilized in 1% Triton X-100 PBS and centrifuged at 100,000×g for 30 min. The supernatant was collected for the binding assay. GST-fusion proteins (5 μg) were conjugated on glutathione beads and incubated with the solubilized Na+/K+-ATPase in 500 μl PBS in the presence of 0.5% Triton X-100 at room temperature for 30 min. The beads were washed with the same buffer for four times. The bound Na+/K+ATPase was resolved on 10% SDS-PAGE and detected by Western blot. Reciprocal binding assay using GST-Na+/K+-ATPase constructs (5 μg) and purified Src lacking of first 85 amino acids (200 ng) or His-tagged Src constructs (100 ng) was done similarly. To test if native Na+/K+-ATPase binds Src, the above experiments were repeated in the absence of Triton X-100. To make the Na+/K+-ATPase/Src complex, 2-5 μg of the purified Na+/K+ATPase was incubated with 4.5 U of Src (˜10 ng) in PBS in the absence of Triton X-100 at room temperature for 30 min. The complex was either used for the experiments directly as indicated or collected by centrifugation at 100,000×g for 30 min.

[1] = target: T2, Na+/K+-ATPase/Src complex (Sus scrofa, UniProt P05024); experiment: Src pY418 phosphorylation of the Na+/K+-ATPase/Src complex (Western blot); assay type: biochemical; conditions: 5 μg GST fusion preincubated with 2 μg Na+/K+-ATPase before adding Src (4.5 U)
T2 construct: Na+/K+-ATPase was purified from pig kidney outer medulla using the Jorgensen method; tissue Upstate Biotechnology (Src only); host or cells: pig kidney outer medulla (Na+/K+-ATPase)
Description: The Src kinase activity was assayed using a commercial kit (Haas et al., 2000). To determine how Na+/K+-ATPase affects Src kinase activity, the purified Src (4.5 U) was incubated with 5 μg of the purified Na+/K+-ATPase in the Src assay buffer for 30 min at room temperature. Afterward, both control Src or the Na+/K+-ATPase-bound Src were exposed to 10 μM ouabain and Src kinase activity was determined. In other experiments, the Src pY418 was measured by anti-pY418 antibody to indicate Src activation (Ma et al., 2000). To do so, the purified Src (4.5 U) was incubated with different amounts of the purified Na+/K+-ATPase or GST-Na+/K+ATPase constructs in phosphate-buffered saline (PBS) for 30 min at 37° C. Afterward, 2 mM ATP/Mg2+ was added. The reaction continued for 5 min at 37° C. and was stopped by addition of SDS sample buffer.
The purified Na+/K+-ATPase was solubilized in 1% Triton X-100 PBS and centrifuged at 100,000×g for 30 min. The supernatant was collected for the binding assay. GST-fusion proteins (5 μg) were conjugated on glutathione beads and incubated with the solubilized Na+/K+-ATPase in 500 μl PBS in the presence of 0.5% Triton X-100 at room temperature for 30 min. The beads were washed with the same buffer for four times. The bound Na+/K+ATPase was resolved on 10% SDS-PAGE and detected by Western blot. […]

Src = target: T3, Src (Sus scrofa, UniProt K7GM45); experiment: GST-CD3 pulldown of Src from LLC-PK1 cell lysates; assay type: binding, pig; conditions: 1 mg LLC-PK1 cell lysates
T3 construct: endogenous in cells; host or cells: LLC-PK1 (pig kidney)
Description: FIG. 4C. A Western blot showing that Src was pulled down by GST-CD3 of Na+/K+-ATPase (Na/K) and H+/K+-ATPase (H/K), but not SERCA from 1 mg LLC-PK1 cell lysates.
Cells were lysed in RIPA buffer containing 1% Nonidet P40, 0.25% sodium deoxycholate, 150 mM NaCl, 1 mM EDTA, 1 mM phenylmethylsulfonyl fluoride, 1 mM sodium orthovanadate, 1 mM NaF, 10 μg/ml aprotinin, 10 μg/mlleupeptin, and 50 mM Tris-HCl (pH 7.4). Cell lysates were cleared by centrifugation at 16,000×g for […], and the supernatants (1 mg) were either immunoprecipitated with anti-α1 antibody or incubated with different GST-fusion proteins. The complexes were then pulled down by either protein G agarose or glutathione beads (Ma et al., 2000; Haas et al., 2002) and analyzed by Western blot.

Molecule	binding to the Na+/K+-ATPase (purified Na+/K+-ATPase)	Src pY418 in presence of Na+/K+-ATPase [1]	pulldown of Src from LLC-PK1 cell lysates (Src)
GST-SH2: GST fusion of Src SH2 domain (protein, left off: a dimerising Fc or GST, GST fusion of Src SH2 domain) WYFGKITRRESERLLLNPENPRGTFLVRESETTKGAYCLSVSDFDNAKGLNVKHYKIRKLDSGGFYITSRTQFSSLQQLVAYYSKHADGLCHRLTNVC	Binding	–	–
GST-kinase: GST fusion of Src kinase domain (protein, left off: a dimerising Fc or GST, GST fusion of Src kinase domain) QTQGLAKDAWEIPRESLRLEVKLGQGCFGEVWMGTWNGTTRVAIKTLKPGTMSPEAFLQEAQVMKKLRHEKLVQLYAVVSEEPIYIVTEYMSKGSLLDFLKGEMGKYLRLPQLVDMAAQIASGMAYVERMNYVHRDLRAANILVGENLVCKVADFGLARLIEDNEYTARQGAKFPIKWTAPEAALYGRFTIKSDVWSFGILLTELTTKGRVPYPGMVNREVLDQVERGYRMPCPPECPESLHDLMCQCWRKDPEERPTFEYLQAFLEDYFTSTEPQYQPGENL	Binding	significantly increased Src pY418	–
GST-SERCA-CD3: GST fusion of the CD3 from rat heart SERCA 2a (protein) GTRRMAKKNAIVRSLPSVETLGCTSVICSDKTGTLTTNQMSVCRMFILDKVEGDTCSLNEFTITGSTYAPIGEVQKDDKPVKCHQYDGLVELATICALCNDSALDYNEAKGVYEKVGEATETALTCLVEKMNVFDTELKGLSKIERANACNSVIKQLMKKEFTLEFSRDRKSMSVYCTPNKPSRTSMSKMFVKGAPEGVIDRCTHIRVGSTKVPMTPGVKQKIMSVIREWGSGSDTLRCLALATHDNPLRREEMHLEDSANFIKYETNLTFVGCVGMLDPPRIEVASSVKLCRQAGIRVIMITGDNKGTAVAICRRIGIFGQDEDVTSKAFTGREFDELSPSAQRDACLNARCFARVEPSHKSKIVEFLQSFDEITAMTGDGVNDAPALKKSEIGIAMGSGTAVAKTASEMVLADDNFSTIVAAVEEGRAIYNNMKQFIRYLISSNV	–	–	not
